Experimental data from US20230071422A1 (BEIJING WISDOMAB BIOTECHNOLOGY, published 2023).

Key:
[1] = target: T1, CD123 on the surface of CD123-positive cells (KG-1a, MV-4-11) (human, UniProt P26951 19-378); experiment: flow cytometry on MV-4-11 cells, titration from 100 nM, goat anti-human IgG-FITC
T1 construct: whole, on cells; Endogenous CD123 on KG-1a (human acute myeloid leukemia) and MV-4-11 (human acute monocytic leukemia) cells; also called cell surface CD123 antigen; CD123 on the surface of MV-4-11 cells
Description: MV-4-11 cells at the logarithmic phase of growth were used and resuspended to 2×10⁶ […] with PBS buffer containing 1% BSA after centrifugation. MV-4-11 cells were plated in a 96-well V-bottom plate at 100 μL/well, and the supernatant was removed after centrifugation. […] The antibodies were added to the wells containing cells and incubated at 4° C. for 1 hour. Then, the plate was washed three times with 200 μL PBS buffer. The goat anti-human IgG-FITC secondary antibody (ZF-0308, ZSGB-BIO) was added to the wells (100 μL/well), and incubated at 4° C. for 30 minutes in the dark. Then, the cells were washed three times with 200 μL of PBS buffer, and resuspended in 100 μL of PBS buffer to detect FITC channel by flow cytometer (ACEA, Novocyte).

[2] = target: T2, extracellular region of human CD123 subtype 1 with C-terminal His tag (hCD123-SP1-his) (human (Homo sapiens), UniProt P26951 19-305); experiment: SPR, Biacore X100; antibody captured by anti-human IgG (Fc), hCD123-SP1-his as analyte, 1:1 model
T2 construct: Recombinant, expressed in HEK293 cells
T2 sequence: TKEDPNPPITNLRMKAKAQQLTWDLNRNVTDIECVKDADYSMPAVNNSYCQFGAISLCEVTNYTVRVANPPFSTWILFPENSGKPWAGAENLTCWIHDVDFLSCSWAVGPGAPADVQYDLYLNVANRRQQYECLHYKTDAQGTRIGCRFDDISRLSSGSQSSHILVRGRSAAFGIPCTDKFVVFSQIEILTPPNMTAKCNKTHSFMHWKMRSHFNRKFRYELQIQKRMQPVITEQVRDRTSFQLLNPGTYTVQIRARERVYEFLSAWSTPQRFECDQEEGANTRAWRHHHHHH
Description: The affinity of anti-CD123 antibodies was determined by surface plasmon resonance using Biacore X100. Related reagents and consumables such as Amino Conjugation Kit (BR-1000-50), Human Antibody Capture Kit (BR-1008-39), CM5 Chip (BR100012) and 10×HBS-EP (BR100669) buffer with pH 7.4 were all purchased from GE healthcare. According to the instructions in the kits, 1-Ethyl-3-(3-dimethylaminopropyl) carbodiimide hydrochloride (EDC) and N-Hydroxysuccinimide (NHS) was used to activate the surface of the carboxylated CM5 chip, and the anti-human IgG (Fc) antibody (capture antibody) was diluted to 25 μg/mL with 10 mM, pH5.0 sodium acetate, followed by an injection with a flow rate at 10 μL/min to achieve a coupling volume of approximately 10,000 response units (RU). Following the injection of the capture antibody, 1 M ethanolamine was injected to block unreacted groups. […] The chip surface was regenerated by injecting 3M MgCl₂ solution at 10 μL/min for 30 s. Association rates (Kₒₙ) and dissociation rates (Koff) were calculated from association and dissociation sensorgrams fitted by a 1:1 binding model using Biacore X100 evaluation software version 2.0.1. The dissociation equilibrium constant (KD) was calculated as the ratio Koff/Kₒₙ.

[3] = target: T3, extracellular region of cynomolgus monkey CD3E with C-terminal His tag (mfCD3E-his) (cynomolgus monkey (Macaca fascicularis), UniProt Q95LI5 22-117); experiment: SPR, Biacore X100; antibody captured by anti-human IgG (Fc), mfCD3E-his as analyte, 1:1 model
T3 construct: Recombinant, expressed in HEK293 cells
T3 sequence: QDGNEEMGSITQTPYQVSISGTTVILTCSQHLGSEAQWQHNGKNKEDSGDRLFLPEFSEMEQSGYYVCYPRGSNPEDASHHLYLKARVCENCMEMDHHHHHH
Description: (§1) The chip surface was regenerated by injecting 3M MgCl₂ solution at 10 μL/min for 30 s. Association rates (Kₒₙ) and dissociation rates (Koff) were calculated from association and dissociation sensorgrams fitted by a 1:1 binding model using Biacore X100 evaluation software version 2.0.1. The dissociation equilibrium constant (KD) was calculated as the ratio Koff/Kₒₙ.

[4] = target: T4, extracellular region of human CD3E with C-terminal His tag (hCD3E-his) (human (Homo sapiens), UniProt P07766 23-126); experiment: SPR, Biacore X100; antibody captured by anti-human IgG (Fc), hCD3E-his as analyte, 1:1 model
T4 construct: Recombinant, expressed in HEK293 cells
T4 sequence (P07766 other isoform, or with tags, fused parts or gaps limits assumed): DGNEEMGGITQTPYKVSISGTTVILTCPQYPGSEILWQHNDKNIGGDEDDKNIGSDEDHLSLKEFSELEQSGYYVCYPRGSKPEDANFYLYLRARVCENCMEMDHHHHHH
Description: as §1

Kd [1]: 7.08 nM
Kd [2]: 0.178 nM
koff [2]: 4.02e-05 s⁻¹
kon [2]: 225000 M⁻¹ s⁻¹
Kd [3]: 11.5 nM
koff [3]: 0.00157 s⁻¹
kon [3]: 137000 M⁻¹ s⁻¹
Kd [4]: 14.1 nM
koff [4]: 0.000797 s⁻¹
kon [4]: 56500 M⁻¹ s⁻¹
B1: bispecific antibody CD3E×CD123 (bispecific antibody, human IgG1, kappa)
heavy 1: EVQLVESGGGLVQPGGSLRLSCAASGFTFSNAWMHWVRQAPGKGLEWVGQIKDKSNNYATYYADAVKGRFTISRDDSKNSLYLQMNSLKTEDTAVYYCRYVHYGVRFFYTMDVWGQGTTVTVSSASTKGPSVFPLAPSSKSTSGGTAALGCLVKDYFPEPVTVSWNSGALTSGVHTFPAVLQSSGLYSLSSVVTVPSSSLGTQTYICNVNHKPSNTKVDKRVEPKSCDKTHTCPPCPAPEFEGGPSVFLFPPKPKDTLMISRTPEVTCVVVDVSHEDPEVKFNWYVDGVEVHNAKTKPREEQYNSTYRVVSVLTVLHQDWLNGKEYKCKVSNKALPASIEKTISKAKGQPREPQVYTLPPCREEMTKNQVSLWCLVKGFYPSDIAVEWESNGQPENNYKTTPPVLDSDGSFFLYSKLTVDKSRWQQGNVFSCSVMHEALHNHYTQKSLSLSPGK
heavy 2: QVQLVQSGAEVKKPGASVKVSCKASGYTFTSYDVSWVRQAPGQRLEWMGWVYPVDGSTKFNEKFKGRVTLTADRSSSTAYMELSSLRSEDTAVYYCARLTYGDFGDAMDYWGQGTLVTVSSASTKGPSVFPLAPSSKSTSGGTAALGCLVKDYFPEPVTVSWNSGALTSGVHTFPAVLQSSGLYSLSSVVTVPSSSLGTQTYICNVNHKPSNTKVDKRVEPKSCDKTHTCPPCPAPEFEGGPSVFLFPPKPKDTLMISRTPEVTCVVVDVSHEDPEVKFNWYVDGVEVHNAKTKPREEQYNSTYRVVSVLTVLHQDWLNGKEYKCKVSNKALPASIEKTISKAKGQPREPQVCTLPPSREEMTKNQVSLSCAVKGFYPSDIAVEWESNGQPENNYKTTPPVLDSDGSFFLVSKLTVDKSRWQQGNVFSCSVMHEALHNHYTQKSLSLSPGK
light: DIVMTQTPLSLSVTPGQPASISCKSSQSLVHSNDNTYLTWYLQKPGQSPQLLIYKVSNRFSGVPDRFSGSGSGTDFTLKISRVEAEDVGVYYCGQGTQYPFTFGQGTKLEIKRTVAAPSVFIFPPSDEQLKSGTASVVCLLNNFYPREAKVQWKVDNALQSGNSQESVTEQDSKDSTYSLSSTLTLSKADYEKHKVYACEVTHQGLSSPVTKSFNRGEC
notes: also called CD3×CD123 BsAb; CD3E×CD123 BsAb
